One block for each binder: values may come before it.
What was measured:
[1] = target: T1, human CD3ed-Fc (human); assay: phage display: ELISA / panning of the immunized-alpaca VHH library (Example 5-1 or 5-2)
T1 construct: Biotinylated in culture by BirA; also called biotin-labeled protein containing human CD3 epsilon and human CD3 delta linked to a human antibody constant region; CD3 heterodimer fused with the antibody constant region
T1 chain 1: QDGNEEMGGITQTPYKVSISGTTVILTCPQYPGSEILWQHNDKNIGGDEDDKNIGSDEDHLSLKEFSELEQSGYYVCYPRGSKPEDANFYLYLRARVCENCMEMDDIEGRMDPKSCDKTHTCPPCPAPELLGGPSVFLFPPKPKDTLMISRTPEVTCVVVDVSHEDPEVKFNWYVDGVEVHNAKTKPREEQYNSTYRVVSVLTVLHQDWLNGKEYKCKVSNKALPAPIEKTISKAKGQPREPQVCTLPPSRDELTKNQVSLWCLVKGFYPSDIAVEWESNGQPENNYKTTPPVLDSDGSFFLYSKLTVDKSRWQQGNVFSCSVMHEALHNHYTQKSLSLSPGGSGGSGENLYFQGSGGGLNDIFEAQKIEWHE
T1 chain 2: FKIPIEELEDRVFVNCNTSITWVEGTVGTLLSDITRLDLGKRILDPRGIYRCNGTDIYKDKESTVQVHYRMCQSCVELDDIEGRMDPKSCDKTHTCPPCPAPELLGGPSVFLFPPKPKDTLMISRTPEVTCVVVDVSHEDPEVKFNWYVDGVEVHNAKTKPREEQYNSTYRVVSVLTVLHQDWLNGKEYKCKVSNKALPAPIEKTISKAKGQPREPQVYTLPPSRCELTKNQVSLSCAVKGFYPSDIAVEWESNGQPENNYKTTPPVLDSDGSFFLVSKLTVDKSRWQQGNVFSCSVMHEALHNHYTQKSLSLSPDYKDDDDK

[2] = target: T1, human CD3ed-Fc; assay: BLI (Octet RED), human CD3ed-Fc on the sensor, protease-treated molecule as analyte
Description: The protease concentration was set to 25 nM, and Octet RED (Pall ForteBio Corp.) was used in the assay.
Next, the CD3 binding evaluation of VHH released by protease treatment was conducted in the same way as in Example 3.

[3] = target: T2, 20A11hu-G1m/VK2-28-k0MT (Homo sapiens (Human), UniProt P0DOX5 2-447 = IgG part); assay: BLI (Octet), in the same way as in Example 3, 30 C or 25 C
T2 construct: IgG antibody-like molecule; VHH 20A11hu in place of VH
T2 sequence (P0DOX5 other isoform, or with tags, fused parts or gaps, chain 1 of 2): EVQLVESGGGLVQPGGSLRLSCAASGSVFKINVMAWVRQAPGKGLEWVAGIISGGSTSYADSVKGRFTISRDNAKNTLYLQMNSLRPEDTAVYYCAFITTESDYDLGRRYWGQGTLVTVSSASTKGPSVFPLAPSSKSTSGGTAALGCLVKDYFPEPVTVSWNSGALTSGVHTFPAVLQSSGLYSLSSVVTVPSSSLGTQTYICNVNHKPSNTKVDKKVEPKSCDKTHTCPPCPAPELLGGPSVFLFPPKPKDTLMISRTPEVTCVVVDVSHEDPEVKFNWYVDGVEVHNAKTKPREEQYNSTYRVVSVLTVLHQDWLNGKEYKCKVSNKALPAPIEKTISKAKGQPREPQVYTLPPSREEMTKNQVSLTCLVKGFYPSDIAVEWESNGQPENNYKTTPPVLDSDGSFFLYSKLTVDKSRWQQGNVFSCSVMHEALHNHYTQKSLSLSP
T2 sequence (light, as listed by the source, chain 2 of 2): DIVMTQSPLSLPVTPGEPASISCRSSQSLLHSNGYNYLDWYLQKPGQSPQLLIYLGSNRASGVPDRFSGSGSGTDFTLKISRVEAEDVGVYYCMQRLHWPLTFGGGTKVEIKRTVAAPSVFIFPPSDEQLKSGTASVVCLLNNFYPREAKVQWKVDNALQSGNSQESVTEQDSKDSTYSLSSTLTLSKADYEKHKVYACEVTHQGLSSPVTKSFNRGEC
Description: Next, the IL-6R binding evaluation of VHH released by protease treatment was conducted at 30° C. or 25° C. in the same way as in Example 3.

[4] = target: T3, IL6R90-G1m/VK2-28-k0MT; assay: BLI (Octet HTX), molecule captured on Protein A biosensor, hsIL-6R as analyte, 30 C
T3 construct: IgG antibody-like molecule; VHH IL6R90 in place of VH
T3 sequence (light, as listed by the source, chain 2 of 2, other chains not shown): as the sequence (light, as listed by the source, chain 2 of 2) above
Description: (§1) The hsIL-6R binding evaluation of each molecule was conducted using Octet HTX (Pall ForteBio Corp.). Specifically, each molecule was allowed to bind to Biosensor/Protein A (ProA) (Pall ForteBio Corp., 18-5013), and hsIL-6R was allowed to act thereon, followed by binding evaluation at 30° C.

[5] = target: T4, IL6R90-G1m/lamL (Homo sapiens (Human), UniProt P0DOY2 1-106); assay: as above
T4 construct: IgG antibody-like molecule; VHH IL6R90 in place of VH
Description: as §1

[6] = target: T5, 20A11-G1m/VK2-28-k0MT; assay: BLI (Octet), in the same way as in Example 3
T5 construct: IgG antibody-like molecule; VHH 20A11 in place of VH
T5 sequence (heavy, as listed by the source, chain 1 of 2): as the sequence (P0DOX5 other isoform, or with tags, fused parts or gaps, chain 1 of 2) above, with V37Y, L45R, W47L counted along it
T5 sequence (light, as listed by the source, chain 2 of 2): as the sequence (light, as listed by the source, chain 2 of 2) above

binding result [1]: binds
B6: bC3edL1R1N161H01 (VHH)
VHH: QVQLVESGGGLVQPGGSLRLSCAASGFPFDNYVMSWVRQAPGKGLEWISAISWNGGSTYYAESMKGRFTISRDNAKSTLYLQMNSLKSEDTAVYYCAKEPRVYYSGSPDYWGQGTQVTVSG

binding result [2]: binds
B7: bC3edL1R1N161H01-G1mISHI01/VK1-39-k0MT after protease (MT-SP1) treatment (VHH)
VHH: B6 VHH
notes: also called released VHH; not shown: residues of the protease cleavage site left at the C terminus

Further lines, the binder ahead of its results:

B1: bC3edL1R1N160H01 (VHH)
VHH: QVQLVESGGGLVQPGGSLRLSCAASGFTFNHCWMYWVRQAPGKGLEWVSVINTDGGSAYYADSVKGRFTISRDNAKNTLYLQMNSLKSEDTAVYYCARDWAPLVDYYYGMDYWGKGTLVTVSG
binding result [1]: binds

B2: bC3edL1R1N160H01-G1mISHI01/VK1-39-k0MT after protease (MT-SP1) treatment (VHH)
VHH: B1 VHH
notes: as for B7
binding result [2]: binds

B3: soluble human IL-6R (receptor)
chain: LAPRRCPAQEVARGVLTSLPGDSVTLTCPGVEPEDNATVHWVLRKPAAGSHPSRWAGMGRRLLLRSVQLHDSGNYSCYRAGRPAGTVHLLVDVPPEEPQLSCFRKSPLSNVVCEWGPRSTPSLTTKAVLLVRKFQNSPAEDFQEPCQYSQESQKFSCQLAVPEGDSSFYIVSMCVASSVGSKFSKTQTFQGCGILQPDPPANITVTAVARNPRWLSVTWQDPHSWNSSFYRLRFELRYRAERSKTFTTWMVKDLQHHCVIHDAWSGLRHVVQLRAQEEFGQGEWSEWSPEAMGTPWTESRSPPAENEVSTPMQALTTNKDDDNILFRDSANATSLPVQ
notes: also called hsIL-6R; recombinant human IL-6R
binding result [3]: no binding
binding result [4]: no binding
binding result [5]: binds
binding result [6]: binds

B4: bC3edL1R1N164H01 (VHH)
VHH: QVQLVESGGGLVQPGGSLRLSCAASGFTFDVYGMSWVRHSPGKGLEWVSTINWNGGSTYYAESMKGRFTISRDNAKNTVYLQMNSLKPEDTAVYYCAKFAPWDGDMEWGQGTQVTVSG
binding result [1]: binds

B5: bC3edL1R1N164H01-G1mISHI01/VK1-39-k0MT after protease (MT-SP1) treatment (VHH)
VHH: B4 VHH
notes: as for B7
binding result [2]: binds
